# B1: Y0313-1 (Fab, V domains shown)
# VH: EVQLVESGGGLVQPGGSLRLSCAASGYDFTHYGMNWVRQAPGKGLEWVGWINTYTGEPTYAADFKRRFTFSLDTSKSTAYLQMNSLRAEDTAVYYCAKYPYYYGTSHWYFDVWGQGTL
# VL: DIQLTQSPSSLSASVGDRVTITCRANEQLSNYLNWYQQKPGKAPKVLIYFTSSLHSGVPSRFSGSGSGTDFTLTISSLQPEDFATYYCQQYSTVPWTFGQGTKVEIKR
# Target: rhVEGF165 (human, UniProt P15692 27-191, limits assumed)
# Assay: cell-based or functional assay
# rhVEGF165, sequence (P15692 other isoform, or with tags, fused parts or gaps limits assumed): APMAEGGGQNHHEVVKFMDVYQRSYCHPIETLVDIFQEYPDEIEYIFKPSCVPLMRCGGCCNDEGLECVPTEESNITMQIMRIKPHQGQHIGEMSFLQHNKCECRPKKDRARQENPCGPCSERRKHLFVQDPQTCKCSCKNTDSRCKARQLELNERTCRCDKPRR
binder,measurement,value
B1,"potency in inhibiting VEGF-induced HuVEC growth ([3H]-thymidine), relative to Y0192 Fab",30 fold
